Reference: patent US20100255010A1 (Genentech, published 2010)

Experiments:
HER3-ECD-Fc = biological target: T1, HER3-ECD-Fc (human, UniProt P21860 20-643, limits assumed); assay: radioligand blocking assay: antibody pre-bound to captured HER3-ECD-Fc, then 125I-HRG added; bound counts as % of control
T1 construct: extracellular domain; also called HER3-FC; HER3-IgG

[1] = biological target: HER3 (form of the protein in the assay not stated) (UniProt P21860 20-643, limits assumed); assay: SPR BIAcore

IC50 (read off the curve) (HER3-ECD-Fc) [nM]	binding result [1]	Binder
~3		D1.5-115, mIgG2A (antibody, V domains shown) VH: EVQLVESGGGLVQPGGSLRLSCAASGFTFTGNWIHWVRQAPGKGLEWVGEISPSGGYTDYADSVKGRFTISADTSKNTAYLQMNSLRAEDTAVYYCARESRVSYEAAMDYWGQGTLVTVSS VL: DIQMTQSPSSLSASVGDRVTITCRASQEIFPDVAWYQQKPGKAPKLLIYSASSLYSGVPSRFSGSGSGTDFTLTISSLQPEDFATYYCQQAAPTPYTFGQGTKVEIKR
~3		D1.5-113, mIgG2A (antibody, V domains shown) VH: EVQLVESGGGLVQPGGSLRLSCAASGFTFTGNWIHWVRQAPGKGLEWVGEISPSGGYTDYADSVKGRFTISADTSKNTAYLQMNSLRAEDTAVYYCARESRVSYEAAMDYWGQGTLVTVSS VL: DIQMTQSPSSLSASVGDRVTITCRASQSLLASHDGTPWVAWYQQKPGKAPKLLIYDASYLYSGVPSRFSGSGSGTDFTLTISSLQPEDFATYYCQQSTFAPYTFGQGTKVEIKR
~5		D1.5-121, mIgG2A (antibody, V domains shown) VH: EVQLVESGGGLVQPGGSLRLSCAASGFTFTGNWIHWVRQAPGKGLEWVGEISPSGGYTDYADSVKGRFTISADTSKNTAYLQMNSLRAEDTAVYYCARESRVSYEAAMDYWGQGTLVTVSS VL: DIQMTQSPSSLSASVGDRVTITCRASQDVGSDLAWYQQKPGKAPKLLIYSASYLYSGVPSRFSGSGSGTDFTLTISSLQPEDFATYYCQQSDPEPYTFGQGTKVEIKR
~4		D1.5-116, mIgG2A (antibody, V domains shown) VH: EVQLVESGGGLVQPGGSLRLSCAASGFTFTGNWIHWVRQAPGKGLEWVGEISPSGGYTDYADSVKGRFTISADTSKNTAYLQMNSLRAEDTAVYYCARESRVSYEAAMDYWGQGTLVTVSS VL: DIQMTQSPSSLSASVGDRVTITCRASQAIASDVAWYQQKPGKAPKLLIYSASFLYSGVPSRFSGSGSGTDFTLTISSLQPEDFATYYCQQSEPEPYTFGQGTKVEIKR
	binds	DL11b (bispecific antibody, V domains shown) VH: EVQLVESGGGLVQPGGSLRLSCAASGFTLSGDWIHWVRQAPGKGLEWLGEISAAGGYTDYADSVKGRFTISADTSKNTAYLQMNSLRAEDTAVYYCARESRVSFEAAMDYWGQGTLVTVSS VL: DIQMTQSPSSLSASVGDRVTITCRASQNIATDVAWYQQKPGKAPKLLIYSASFLYSGVPSRFSGSGSGTDFTLTISSLQPEDFATYYCQQSEPEPYTFGQGTKVEIKR
